Test results reported in US20190383824A1 (OREGON HEALTH AND SCIENCE UNIVERSITY, published 2019).

B2: CoilY probe peptide (peptide)
peptide: MGSSNTVKELKNYIQELEERNAELKNLKEHLKFAKAELEFELAAHKFEGGGAAACLGKLAAALEHHHHHH
modifications: also: label (AF647, rhodamine or biotin) on Cys55 by maleimide, varies between preparations
notes: Recombinant from E. coli, with linker, reactive cysteine and His6 tag; All differently labelled CoilY probes are kept as one molecule; also called Coil5; Zip5

Legend:
CoilE-DHFR = molecular target: T1, CoilE-DHFR; test: fluorescent blot on PVDF after SDS-PAGE
T1 construct: Lysate and purified protein resolved by SDS-PAGE and blotted on PVDF
T1 chain: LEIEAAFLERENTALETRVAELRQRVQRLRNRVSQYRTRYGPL

CoilY-EGFP-TM [1] = molecular target: T2, CoilY-EGFP-TM; test: flow cytometry, live U-2 OS cells, 500 nM probe
T2 construct: also called CoilY-GFP
T2 chain: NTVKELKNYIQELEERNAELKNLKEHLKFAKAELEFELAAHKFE
Procedure: (§1) Cells were treated with 500 nM AF647-conjugated probe peptide before analysis, and we gated for EGFP-expressing cells.

CoilY probe peptide = molecular target: B2; test: purified peptides; interferometry is named among the characterisation methods
CoilZ-EGFP-TM [2] = molecular target: T3, CoilZ-EGFP-TM; test: two-target imaging of cells, confocal microscopy, streptavidin-Qdot565 detection
T3 construct: CoilZ fused to the N-terminus of EGFP in pDisplay; also called CoilZ-GFP; CoilZ-EGFP-pDisplay
T3 chain: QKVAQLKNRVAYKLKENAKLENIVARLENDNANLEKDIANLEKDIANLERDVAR

CoilY-EGFP-TM [3] = molecular target: T2, CoilY-EGFP-TM; test: flow cytometry, live U-2 OS cells
Procedure: as §1

CoilZ-EGFP-TM [4] = molecular target: T3, CoilZ-EGFP-TM; test: flow cytometry, live cells, 300 nM probe
CoilZ-EGFP-TM [5] = molecular target: T3, CoilZ-EGFP-TM; test: flow cytometry, live U-2 OS cells, 500 nM probe
Procedure: as §1

CoilY-mCherry-TM [6] = molecular target: T4, CoilY-mCherry-TM; test: two-target imaging of cells, confocal microscopy
T4 construct: CoilY fused to the N-terminus of a membrane-targeted mCherry construct; on cells or in HEK293FT lysates; also called CoilY-mCherry-pDisplay
T4 chain: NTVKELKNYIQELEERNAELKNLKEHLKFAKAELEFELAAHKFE

CoilY-mCherry-TM [7] = molecular target: T4, CoilY-mCherry-TM; test: fluorescent blot on PVDF after SDS-PAGE
mEmerald-CoilE-Actin-C18 = molecular target: T5, mEmerald-CoilE-Actin-C18; test: colocalisation analysis of micrographs, fixed U-2 OS cells
T5 construct: Expressed in U-2 OS cells; labelled after fixation and permeabilisation; also called CoilE-tagged actin; not shown: mEmerald, engineered green fluorescent protein; actin (Actin-C18 construct)
T5 chain: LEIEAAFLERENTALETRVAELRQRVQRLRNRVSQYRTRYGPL
Procedure: (§2) U-2 OS cells were transfected with mEmerald-actin-C18, mEmerald-CoilE-actin-C18, H2B-6-mEmerald, H2B-6-CoilE-mEmerald, Mito-7-mEmerald, and Mito-7-CoilE-mEmerald and fixed with 4% PFA 24 hours after transfection. […] Cells were fixed and imaged using with line-scanning confocal microscope.
(§3) The cells labeled as in FIG. 15 at low magnification to capture multiple cells.

H2B-6-CoilE-mEmerald = molecular target: T6, H2B-6-CoilE-mEmerald; test: as above
T6 construct: Expressed in U-2 OS cells; labelled after fixation and permeabilisation; also called mEmerald-CoilE-H2B; not shown: histone H2B (H2B-6 construct); mEmerald, engineered green fluorescent protein
T6 chain: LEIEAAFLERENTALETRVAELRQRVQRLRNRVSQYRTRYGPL
Procedure: as §2, §3

Mito-7-CoilE-mEmerald = molecular target: T7, Mito-7-CoilE-mEmerald; test: as above
T7 construct: Expressed in U-2 OS cells; labelled after fixation and permeabilisation; also called mEmerald-CoilE-mito; not shown: mEmerald, engineered green fluorescent protein
T7 chain: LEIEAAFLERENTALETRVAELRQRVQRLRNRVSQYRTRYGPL
Procedure: as §2, §3

untagged TfR1 = molecular target: T8, untagged TfR1 (UniProt P02786 1-760, limits assumed); test: CLEM of CHO TRVb cells, CoilR-biotin detected by streptavidin-QD655
T8 construct: whole, on cells; Expressed in CHO TRVb cells; control without a coil tag; also called transferrin receptor 1; TfR1-TRVb
Source text: VIP E/R was used for CLEM imaging of TfR1 receptor (FIG. 7). […] This enabled individual cells' locations to be registered relative to the slide so that they may be reimaged again via SEM. After fluorescent cells were mapped, the coverslips were processed for EM imaging.

T8 sequence (P02786 whole entry): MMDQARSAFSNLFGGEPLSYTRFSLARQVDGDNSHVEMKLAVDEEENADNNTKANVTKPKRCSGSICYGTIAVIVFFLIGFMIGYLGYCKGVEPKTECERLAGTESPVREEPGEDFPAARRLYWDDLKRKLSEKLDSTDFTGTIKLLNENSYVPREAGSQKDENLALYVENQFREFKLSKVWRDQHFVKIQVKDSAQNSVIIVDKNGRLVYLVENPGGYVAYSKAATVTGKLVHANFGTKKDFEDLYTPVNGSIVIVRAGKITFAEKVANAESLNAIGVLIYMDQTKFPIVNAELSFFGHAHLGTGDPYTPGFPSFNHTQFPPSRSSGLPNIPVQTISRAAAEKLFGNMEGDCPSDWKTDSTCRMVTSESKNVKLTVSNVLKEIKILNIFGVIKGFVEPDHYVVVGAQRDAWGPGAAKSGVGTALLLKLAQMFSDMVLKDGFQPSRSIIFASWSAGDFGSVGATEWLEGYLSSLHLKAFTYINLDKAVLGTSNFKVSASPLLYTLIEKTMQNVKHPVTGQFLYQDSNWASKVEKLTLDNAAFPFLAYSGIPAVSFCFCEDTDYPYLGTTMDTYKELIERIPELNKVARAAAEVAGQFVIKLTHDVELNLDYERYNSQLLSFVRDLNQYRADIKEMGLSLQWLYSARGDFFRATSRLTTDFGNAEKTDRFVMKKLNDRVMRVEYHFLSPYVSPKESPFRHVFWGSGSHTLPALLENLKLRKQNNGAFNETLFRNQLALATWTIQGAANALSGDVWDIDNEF

B1: CoilZ probe peptide (peptide)
peptide: MGSSQKVAQLKNRVAYKLKENAKLENIVARLENDNANLEKDIANLEKDIANLERDVARGGGAAACLGKLAAALEHHHHHH
modifications: reporter named in each row (AF647, fluorescein or biotin) conjugated to the reactive cysteine by maleimide chemistry; label state not stated for the biophysical characterisation
notes: Recombinant from E. coli, with linker, reactive cysteine and His6 tag; All differently labelled CoilZ probes are kept as one molecule; also called Coil6; Zip6
binding result (CoilE-DHFR): no binding
fold enhancement of AF647 fluorescence (CoilY-EGFP-TM [1]): 4 fold
Kd (CoilY probe peptide): 3.6 nM
binding result (CoilZ-EGFP-TM [2]): no binding (tested: 500 nM)

B2
binding result (CoilY-EGFP-TM [3]): no binding (tested: 500 nM)
fold increase in AF647 fluorescence (CoilZ-EGFP-TM [4]): 35 fold
fold enhancement of AF647 fluorescence (CoilZ-EGFP-TM [5]): > 40 fold
binding result (CoilY-mCherry-TM [6]): no binding (tested: 500 nM)

B3: CoilR probe peptide (peptide)
peptide: MGGSLEIRAAFLRQRNTALRTEVAELEQEVQRLENEVSQYETRYGPLGGGAAALGCLAAALEHHHHHH
modifications: not fully specified
notes: also called CoilR-Cy5; CoilR-biotin
binding result (CoilY-mCherry-TM [7]): no binding
Pearson's correlation between the mEmerald signal and CoilR-Cy5 (mEmerald-CoilE-Actin-C18): 0.97
Pearson's correlation between the mEmerald signal and CoilR-Cy5 (H2B-6-CoilE-mEmerald): 0.9
Pearson's correlation between the mEmerald signal and CoilR-Cy5 (Mito-7-CoilE-mEmerald): 0.89
binding result (untagged TfR1): no binding (tested: 100 nM)
